Experiment: soluble on expression in E. coli; label from the status in PepcDB or PDB records

Sequence | soluble on expression in E. coli
GVVGSDARSRGRVPGYASSSLYRESGIISARQLALLQRMLPRLRLEQLFRCEWLQQRLARGLALGREEVRQILLCAAQDDDGWCAELGDRVNLAVPQSMIDWVLLPVYGWWESLLDQAIPGWRLSLVELETQSRQLRIKSEFWSRVAELEPEQAREELARVAKCQARTQEQVAELAGKLETASALAKSAWPNWQRGMATLLASGGLAGFEPIPEVLECLWQPLCRLDDDVGAADAVQAWLHERNLCQAQDHFYWQS | soluble
MATHKLSFFEKLANTFGALYRHQAQQFPRRLAILKAVGKHELAPPRSADIPAIKADWAKLQKFIETKQYVNLSIKESLVYSAVALEVVFWFFVGEMIGRRYIFGYIVPANYVSKDTKAKVAEKKRLAALEA | not soluble
MGSDKIHHHHHHMSEDIFDAIIVGAGLAGSVAALVLAREGAQVLVIERGNSAGAKNVTGGRLYAHSLEHIIPGFADSAPVERLITHEKLAFMTEKSAMTMDYCNGDETSPSQRSYSVLRSKFDAWLMEQAEEAGAQLITGIRVDNLVQRDGKVVGVEADGDVIEAKTVILADGVNSILAEKLGMAKRVKPTDVAVGVKELIELPKSVIEDRFQLQGNQGAACLFAGSPTDGLMGGGFLYTNENTLSLGLVCGLHHLHDAKKSVPQMLEDFKQHPAVAPLIAGGKLVEYSAHVVPEAGINMLPELVGDGVLIAGDAAGMCMNLGFTIRGMDLAIAAGEAAAKTVLSAMKSDDFSKQKLAEYRQHLESGPLRDMRMYQKLPAFLDNPRMFSGYPELAVGVARDLFTIDGSAPELMRKKILRHGKKVGFINLIKDGMKGVTVL | not soluble
MSLTEKTKEVRLDFFEALGMVTALMMDCDYKHWFVADISRNIIPALQAGQCKVYFDEEGRPNAFVTWALVDNDDHEALLREGCNPPPGKWASGNHLWFIDIVAPVGNILPRIKRDLHQNYFADHNKAYAIRSKADGAIRRVQVWKNPLVTRPTRSFRIGADIETHDDEGHHHHHH | soluble
MIDTTVFQDKTAVYYTLGCKLNFSETSTIGKILREAGVRTARKGEKADLCIVNTCSVTEMADKKCRQAIHRLVKQHPGAFVVVTGCYAQLKPGDVAKIEGVDVVLGAEQKKDLLQYLGDLHKHEGGEAYTTATKDIRSFAPSCSRGDRTRFFLKVQDGCDYFCSYCTIPFARGRSRNGTIASLVEQARQAAAEGGKEIVLTGVNIGDFGKSTGETFFDLVKALDRVEGIERYRISSIEPNLLTDEIIEYVSRSRSFMPHFHIPLQSGSDEVLQLMRRRYGTELFASKIAKIKEVMPDVFIGVDVIVGTRGETAGYFEKAYEFIHGLDVTQLHVFSYSERPGTQALKIDHVVTPEEKHQRSQRLLALSDEKTKAFYARYIGQTMPVLMEKPKAGALMHGFTANYIRVEVESDAALDNKVVNVLLGDFNEEGTALKGTITQLEHHHHHH | not soluble
MGSDKIHHHHHHMFSKKVKWEETMTYKSIRALERGIDVLQYLNTVKGAAPPEIAENVNLPRPTVHRILETLSELNLVYRSQLGDEYRLSSGVQRLAGNRSSVRLNWIDEIALPALLELTSEIIWPSDIAVCHKAAMIIQGTTHRISPMSCDVGMVGNRRSMLMSPLGRAYLSHCPDDELKSILCALNASSASEDKGARDRAFIKEIIETGRRDGVSACNERPHPRCASLAAPIRLNGKVLACMNVVWRANMLTIEDAMDQIRDPLLATRDRIEAQLHEQFARPALGSTSFPETYTLRTGTRDRLPHSLALA | not soluble
MAQPKFVVAEIVEMEDHPDSDHLHICKVNVGFADPVQIVCGAPNAALGLKTVAALPGAMMPNGSLIFPGALRGVQSYGMLCSARELELPNAPEVRGIIELSSDLSAGKAFDSETMLEHHHHHH | not soluble
MGSDKIHHHHHHMHLLFVTSIVPDGALASGYEIANAAIIAALRRAGARVTVIGFTWPGKVTADPENTVVLGEIDVRTESASALRKLAWVRKAMLSGLTFASVKLRAVSEHEVEAALEQAGPFDGYVLNSVQFAGAFEKLFEDKPSIFVAHNVEHLSARENEAAAGGVFQRLLFRREARLLKVVEERLCRRARFVFTLAEEDRAALGVASNDRSAVLPLVTGARAPVRNGPRRIDCDAALIGTWTWQPNRIGLDWFLGKVVPHLRPGFRIRIAGHMPSGVTSAHPGVEFVGRVADARAFVCGAAVIPLISTAGSGVQLKTIETFELGLPSVATSRSLRGIGHRPDNCVVTDDPAGFARALEAAAADIRDVDGGAFYRQQVKALDAAIRYGLSKLGAVRQEVLA | not soluble
SLKVYSKDEIVEQAKELAKMISETEEVDFFKKAEAQIHKNENVKRAIDEIKALQKQAVNLQHYGKWEALKKVEAEIDALQDKLDSIPVVQEFKSSQTYVNDLLQLVASTISNNVTDEILISTNGDVLKGETGAAVESKKGNCGC | soluble
MSLGDKKIRIRRTNEQLDKEVISEFEKLVGEFGFGNVNLSALMKAADLEANVFYRRYGSMDNLYDRLAKQYDFWINNTIDISTLNTLGPKKFFAETFKTLFRNLSENSVMQKLLLYEMTTINSTTKRSAETRDVMNLNLITFYENLFAPAKINIKSIASILIGGIYYLILHKECAKICTIDYKTKEGENAFSEGIDFLTDIIFDRLEMYDRDKKAIRQMISDGISESKICKYMGINKNDLKTLLSEGHHHHHH | soluble
MSLYKLIALDMDGTLLNSQKQISPRTKQAIAQARQQGIQVVLASGRPLDGMRSKLEELHLTTENDYVLYYNGSMVANVGTGEIIHQQIIDGKAAKRVATLAQEFGLNTHAFSQIHGLITPKTSQYTEVEASINGLNITEMDFAQLADDHPIIKAMIVGEPEKLTQAIAQLPAQWREEFTVVQSAPFFLEFLNTGSNKGIGVQAIAAHLGIQASEVICMGDAENDHHMLQYAGLGIAMANAMEETKHIADHITLSNDHDGVAVAIERFALGCFSEGHHHHHH | soluble
MGDKQFAVIGLGRFGLAVCKELQDSGSQVLAVDINEDRVKEAAGFVSQAIVANCTHEETVAELKLDDYDMVMIAIGADVNASILATLIAKEAGVKSVWVKANDRFQARVLQKIGADHIIMPERDMGIRVARKMLDKRVLEFHPLGSGLAMTEFVVGSRLMGKTLSDLALCKVEGVQVLGFKRGPEIIKAPDMSTTLEIGDLIIVVGPQDKLANKLKSLEHHHHHH | soluble
MSQARPATVLGAMEMGRRMDVTSSSASVRAFLQRGHTEIDTAFVYANGQSETILGDLGLGLGRSGCKVKIATKAAPMFGKTLKPADVRFQLETSLKRLQCPRVDLFYLHFPDHGTPIEETLQACHQLHQEGKFVELGLSNYVSWEVAEICTLCKKNGWIMPTVYQGMYNAITRQVETELFPCLRHFGLRFYAFNPLAGGLLTGRYKYQDKDGKNPESRFFGNPFSQLYMDRDWKEEHFNGIALVEKALKTTYGPTAPSMISAAVRWMYHHSQLKGTQGDAVILGMSSLEQLEQNLALVEEGPLEPAVVDAFDQAWNLVAHECPNYFR | soluble
MKSNHYMSIMEEFYMDKNLLEITGYDGEGYVPLIDYSHWRVAELRYCEELEVDKLKDMQKHDETDEVFVLLEGDFTLFLGGNGEHIGEIEAIKLEPLKLYNVKRGTYHTHTPEKNSTVLIVENVDTTDDNSPKEKLTLEQKKIIEKLYKEVNS | not soluble
LETSWIKPGQASWEWWNDAAPYGPDVNFVSGYNLETYKYYIDFASKYGIRYIIMDEGWAKSTRDPYTPNAKVDVHELIRYAEKKNVGIVLWLTWLTVENNMDLFKTFSEWGVKGVKIDFMDRSDQWMMNFYERVAAEAAKYKLFVDFHGSVSPKGLEYKYPNVLSYEGVRGMEQMGGATPDNSIFMPFMRNAVGAMD | not soluble
MSLKYAWIELHSRQWPVSLTCQVLGVSPSGYHARKARDVDTDRARRRISNDALLVHIKAVHAESKGEYGWPRVWKKLLAQGIRVSKDRVQQLMKLHGIRAKTKRRFKVTTDSNHSLPVAPDLLQRDFSPARPDQVWTMDITYIWTDEGWLFLTVILDLFSRQVVGWSMQPHMRTELVSDALRMAWFRRRPEAGLIVHSDRGSQYCSRDFQDLLKGYGMRSSMSRRGNCWDNAPTESLWGSLKRARILGQRFATRREAMDEVIDWLSFYNHSRLHSTLGYVSPMQFERDWYAAQNQRVAEGHHHHHH | not soluble
AIAASGKRKGLSFDDKKTRLLELFNETCDFYTLKELEKIAPKLKGIITQSVKDVLQSLVDDDLVNSDKCGVQTIYWCLPSEAVAKRQRRLDALQQQLAEKRQKLTALQRQLVQVQAGREDSVERTAVLERLAACEAAWRERQRTLESYLECDPDVLAQRETETKTLIEQANRWTDNLYVIRSYVQRNLGVDLDLFDQQFELKPALQYLE | soluble
MSLSLWWKRAKARMTESVTYYQEPAFEKLLPDPDPTFERPYTLCLSLDDLLIHSEWTREHGWRIAKRPGVDYFIRYLSQYYELVLFTTTPYATGEPVMRKLDPFRLILWPLYREATKFEDGEIVKDLSYLNRDLSKVIIIDTKAKHVRNQPDNAIILDPWKGDKDDKNLVNLIPFLEYIHTMQYSDVRKVIKSFDGKDIPTEGHHHHHH | not soluble
MSAWTMSDPYPATEAHAQRAAKSSPKSLLDRLLSLVRREPEDREGIKAILEAAHERELLDAESYAMIKGALAVSERTVADIMVPRSRMDLLDISQPLPQLLATIIETAHSRFPVYEDDRDNIIGILLAKDLLRYMLEPALDIRSLVRPAVFIPEVKRLNVLLREFRASRNHLAIVIDEHGGISGLVTMEDVLEQIVGDIEDEFDEDEEESIFPEGENQWRLTASTDISHFNATFATDLPDDEYDSVGGWLGGQLGRIPRRGDSADHDGLHIEVVRADARRALWLRVRRNAGAQPPASAAE | not soluble
MSLNAGKVVQTAKLFQDIHPEERLEKTLVDDRFAALREVIAGRTDGGQSGGGTMQIASLLTMLNEYYTQLTIADSALAAGTLPARITAADKLQLEAAKLPAPLKNILLDLTKQGTRKINAGTGDVLNTQMEAMMGDDCRDAIDGRYPFADSPQEVSAEDFNRIFASGGVLDAFWSKQLAPLADTASDPWRYKPTEGNMTLQGPDLTPFQQAKQIRSVFFNSEGGKKFSWSMQISVVDMDPAIMELVIDIDGQVLRYAHGPDRPLKVTWPGPRNGSMAEITASPRIRQDTSTLLTGGPWALFHLLDAGMVQETAVRGRQLVEYDFDGRRVVLEITAGRDFNPVSRELLQNFSCPARALEGHHHHHH | not soluble
SLGPPPGPPRVSPDPRAELDSTVLLTRSLLADTRQLAAQLRDKFPADGDHNLDSLPTLAMSAGALGALQLPGVLTRLRADLLSYLRHVQWLRRAGGSSLKTLEPELGTLQARLDRLLRRLQLLMSRLALPQPPPDPPAPPLAPPSSAWGGIRAAHAILGGLHLTLDWAVRGLLLLKTR | soluble
FKRVSKAAVTASVTVIKAEDLVNTPVANPMELLQGRVPGLNIQMNNGTPGGLPSFSIRGVSDISVQSSGDGEFMMGLTPPLFVVDGIPQEDVTGYDAAGLLSGATVSPLAMIPLEDIANIQVLKDAAATSLYGSKGAYGVILIETKRGETA | not soluble
MLEEFLPSLIAHTPRQSARLIVADNGSTDDSVEFLRRQYPQVELILFPENYGFAEGYNRAIAQTECDCVVLLNSDVEVSEGWLDAPLALLQERSDVAAVQPKIRALRDKHAFEYAGAAGGYVDRWGYPFCRGRIFDAVETDTGQYDDIAEVFWASGAALFIRRQVYMAVGGLDPRFFAHQEEIDLCWRLHSRGWR | not soluble
MSRTIWLVRHGQRVDNVDKKWKANNDAKWDDPELTLRGKQQAHEVGKHFANMNIEAIVVSPFTRCIETAAQIVAMMENKAKICVEPGLMEPLYLCKNPPTIPSMDKIKEYSTQVDESYKPVFEKLPISEISLLFSEISLLFPMVLHWQTSTLS | not soluble

— the DeepSol protein solubility set
